Assay results published in article PMC6269467.

How the values were obtained:
[1] = target: αE-catenin actin-binding domain, wild type (αEcat-ABD-WT) (mouse) (UniProt P26231); experiment: SEC-MALS; elution profiles at 3 mg/ml to 30 mg/ml; MALS of the dimer peak at 30 mg/ml; dimer to monomers; Superdex-200 Increase 10/300 GL; 20 mM Tris-HCl pH 7.0, 100 mM NaCl
[2] = target: αN-catenin actin-binding domain with the helix-1 mutation (αNcat-ABD-H1) (mouse) (UniProt Q61301); experiment: crystal structure; αNcat-ABD-H1 crystals in forms A (2.2 Å) and B (2.8 Å), grown at 277 K by vapor diffusion; molecular replacement with PDB 4K1O

| stoichiometry N [1] | stoichiometry N [2] | Substance |
| --- | --- | --- |
| 2 |  | αE-catenin actin-binding domain, wild type (αEcat-ABD-WT) (from UniProt P26231 652-906) (domain or fragment) |
|  | 2 | αN-catenin actin-binding domain with the helix-1 mutation (αNcat-ABD-H1) (from UniProt Q61301-2 651-905) (domain or fragment) |
